Data on one substance can be found in patent US20130115677.

Holding throughout (assay): cleavage_in_vitro
Series [1] addresses EcoRI-HF K62E (Escherichia coli RY13) (UniProt P00642). Particulars: NEB4, 37 C, Mg2+.
Series [2] has as its system T1, SbfI-HF K251A (Streptomyces species Bf-61?).
T1 sequence: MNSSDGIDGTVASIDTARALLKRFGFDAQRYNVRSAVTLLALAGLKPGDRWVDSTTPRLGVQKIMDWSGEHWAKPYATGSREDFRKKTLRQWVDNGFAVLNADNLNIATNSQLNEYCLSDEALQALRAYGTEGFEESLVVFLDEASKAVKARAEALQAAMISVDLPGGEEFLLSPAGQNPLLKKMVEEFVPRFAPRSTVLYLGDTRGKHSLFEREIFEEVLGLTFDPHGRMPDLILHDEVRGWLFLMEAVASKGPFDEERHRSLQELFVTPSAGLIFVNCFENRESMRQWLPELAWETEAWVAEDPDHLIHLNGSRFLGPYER
Particulars: NEB4, 37 C, Mg2+.

Series [3] has as its system T2, BsmBI-HF N185Y/R232A (Bacillus stearothermophilus).
T2 sequence: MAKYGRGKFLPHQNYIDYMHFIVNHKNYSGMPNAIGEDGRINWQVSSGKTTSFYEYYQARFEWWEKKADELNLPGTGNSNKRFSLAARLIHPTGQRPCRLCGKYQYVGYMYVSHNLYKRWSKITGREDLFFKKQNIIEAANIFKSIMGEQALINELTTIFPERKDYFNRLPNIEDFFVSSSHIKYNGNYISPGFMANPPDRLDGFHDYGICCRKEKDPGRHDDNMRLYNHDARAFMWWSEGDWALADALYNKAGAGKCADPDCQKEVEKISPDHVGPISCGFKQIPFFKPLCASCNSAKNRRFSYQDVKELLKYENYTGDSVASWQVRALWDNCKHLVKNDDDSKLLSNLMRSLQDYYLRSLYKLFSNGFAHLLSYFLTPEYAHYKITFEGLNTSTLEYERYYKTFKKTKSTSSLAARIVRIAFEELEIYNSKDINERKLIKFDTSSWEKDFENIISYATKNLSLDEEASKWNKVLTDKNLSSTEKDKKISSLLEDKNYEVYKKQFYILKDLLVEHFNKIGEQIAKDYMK
As to conditions: NEB4, 55 C, Mg2+.

The test system of series [4] is T3, SapI (Saccharopolyspora sp.).
T3 sequence: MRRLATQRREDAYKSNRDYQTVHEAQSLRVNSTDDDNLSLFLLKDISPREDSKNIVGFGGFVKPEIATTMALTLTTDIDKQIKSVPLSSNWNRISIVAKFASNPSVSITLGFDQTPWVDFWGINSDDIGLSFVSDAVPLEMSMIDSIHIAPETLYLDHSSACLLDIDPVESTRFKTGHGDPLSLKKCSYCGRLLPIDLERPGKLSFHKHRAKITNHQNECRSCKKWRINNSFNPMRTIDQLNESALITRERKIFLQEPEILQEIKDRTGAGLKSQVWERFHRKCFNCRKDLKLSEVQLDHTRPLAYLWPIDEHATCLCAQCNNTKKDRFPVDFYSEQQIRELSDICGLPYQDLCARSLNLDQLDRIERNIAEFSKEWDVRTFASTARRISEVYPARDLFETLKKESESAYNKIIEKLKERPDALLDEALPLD
Particulars: NEB4, 37 C, Mg2+.

Series [5] relates to T4, NcoI (Nocardia corallina).
T4 sequence: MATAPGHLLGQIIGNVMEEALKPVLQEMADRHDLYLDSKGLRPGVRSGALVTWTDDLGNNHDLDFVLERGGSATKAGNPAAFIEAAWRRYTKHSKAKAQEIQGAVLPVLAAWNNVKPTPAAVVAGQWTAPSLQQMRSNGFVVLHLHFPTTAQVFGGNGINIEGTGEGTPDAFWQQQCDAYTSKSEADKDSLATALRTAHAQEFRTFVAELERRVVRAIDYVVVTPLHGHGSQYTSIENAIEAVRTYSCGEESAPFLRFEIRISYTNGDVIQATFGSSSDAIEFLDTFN
Particulars: NEB4, 37 C, Mg2+.

A further series concerns BstXI-HF N65A. Particulars: NEB4, 55 C, Mg2+.
Series [6] concerns T5, SphI (Streptomyces phaeochromogenes).
T5 sequence: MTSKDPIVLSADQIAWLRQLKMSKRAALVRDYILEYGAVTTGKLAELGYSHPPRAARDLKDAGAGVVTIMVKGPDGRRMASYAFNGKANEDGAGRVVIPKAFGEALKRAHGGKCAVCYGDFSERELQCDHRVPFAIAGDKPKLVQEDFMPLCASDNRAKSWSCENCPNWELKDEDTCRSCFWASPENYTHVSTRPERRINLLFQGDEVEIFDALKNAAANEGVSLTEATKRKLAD
As to conditions: NEB4, 37 C, Mg2+.

Series [7] has as its target T6, PstI-HF D91A (Providencia stuartii 164) (UniProt P00640).
T6 sequence: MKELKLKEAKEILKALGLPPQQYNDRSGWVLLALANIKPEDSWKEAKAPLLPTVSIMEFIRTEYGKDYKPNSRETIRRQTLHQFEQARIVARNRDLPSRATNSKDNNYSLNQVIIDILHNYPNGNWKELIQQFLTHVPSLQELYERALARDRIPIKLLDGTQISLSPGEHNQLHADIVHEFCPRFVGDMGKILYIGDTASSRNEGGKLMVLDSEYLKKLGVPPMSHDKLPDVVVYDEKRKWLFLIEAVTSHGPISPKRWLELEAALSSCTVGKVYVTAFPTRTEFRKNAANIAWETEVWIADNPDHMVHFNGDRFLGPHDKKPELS
Particulars: NEB4, 37 C, Mg2+.

Series [8] deals with T7, BamHI-HF E163A/E167T (Bacillus amyloliquefaciens) (UniProt P23940).
T7 sequence: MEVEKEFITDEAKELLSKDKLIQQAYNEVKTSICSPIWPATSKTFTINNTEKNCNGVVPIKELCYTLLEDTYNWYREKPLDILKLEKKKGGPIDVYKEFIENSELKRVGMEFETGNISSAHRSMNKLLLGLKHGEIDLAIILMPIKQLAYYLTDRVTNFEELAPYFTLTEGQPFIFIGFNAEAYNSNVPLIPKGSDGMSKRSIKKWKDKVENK
Particulars: NEB4, 37 C, Mg2+.

Series [9] has as its target T8, ScaI-HF H193A/S201F (Streptomyces caespitosus) (UniProt O52691).
T8 sequence: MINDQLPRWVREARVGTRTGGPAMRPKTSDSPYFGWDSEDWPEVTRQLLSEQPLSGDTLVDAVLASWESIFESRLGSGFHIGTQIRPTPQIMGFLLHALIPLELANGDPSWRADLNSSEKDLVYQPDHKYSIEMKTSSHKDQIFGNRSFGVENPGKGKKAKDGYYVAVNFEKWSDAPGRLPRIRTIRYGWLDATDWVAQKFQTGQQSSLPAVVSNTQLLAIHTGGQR
As to conditions: NEB4, 37 C, Mg2+.

Consider lambda DNA, for which the activity (fidelity index) is 16000 in series [1]; 250 in series [2]; over 500 in series [3]; 16 in [4]; 32 in series [5]; over 250 in the series with BstXI-HF N65A. Moreover, the activity (fidelity index) in series [6] is 16; in series [7], 4000; in [8], over 4000; in [9], 1000.
